Experimental findings from the supplement of paper PMC10724198 are described below.

± gives the standard deviation of the averaged measurements.
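Note: PSI is a weighted mean of sequencing reads over stability bins, variants kept only with over 10 reads, mCherry proximal and sfGFP distal, peptide attached via GGGS linker.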

For this series, the system named is Saccharomyces cerevisiae. The series is described as follows: protein stability index of tFT-peptide fusion (C-terminal peptide) (PSI (0-1 scale)); higher = more stable (slower turnover). The conditions noted are these: genetic background: wild type; temperature: 30 C.
Sequence SRRLAFSTVLPA showed a protein stability index of 0.664 ± 0.035.

SRRWRPDSSRIQ: the protein stability index came out at 0.667 ± 0.1.

For SRSHSPLCPSFA, the protein stability index is 0.604 ± 0.026.

SRTLYSHLLFFP registered a protein stability index of 0.66 ± 0.0097.

Consider SRTPLASTPPHR, for which the protein stability index worked out at 0.761 ± 0.11.

SRTSRGPPFSSS had a protein stability index of 0.688 ± 0.043.

In the case of SRVEVEVKIGFQ, the protein stability index amounted to 0.6331 ± 0.0061.

Consider SRVIFSQSLSVP, for which the protein stability index was determined as 0.654 ± 0.038.

The sequence SRVRTIVRNGSR returned a protein stability index of 0.777 ± 0.11.

Take SRVSRGEWGVGI: the protein stability index worked out at 0.659 ± 0.023.

In turn, SRVVTSRLVLSS showed a protein stability index of 0.606 ± 0.017.

The sequence SRVWVGQMIRGR registered a protein stability index of 0.664 ± 0.019.

SSERVLVRRRGS registered a protein stability index of 0.566 ± 0.12.

Take SSFGIVWKKDAI: the protein stability index was determined as 0.736 ± 0.053.

Regarding SSGAIKPDFRMA, the protein stability index came out at 0.7446 ± 0.005.

SSGSRCQQKIRY yielded a protein stability index of 0.66 ± 0.11.

SSLGNSFYLSPH returned a protein stability index of 0.683 ± 0.033.

Sequence SSLPRLGSSPRR had a protein stability index of 0.66 ± 0.019.

SSLPSSLSPLTS showed a protein stability index of 0.699 ± 0.024.

Take SSLRSFPLLEHT: the protein stability index was 0.6857 ± 0.0012.

On to SSLSFHPLPLAP, for which the protein stability index is 0.695 ± 0.03.

Regarding SSLSPGFPLPSS, the protein stability index worked out at 0.6989 ± 0.0014.

In the case of SSLTCLLFPPGY, the protein stability index stood at 0.695 ± 0.012.

SSNKSKNNHSNM: the protein stability index is 0.688 ± 0.031.

Turning to SSNVTVLGVLYC, the protein stability index was determined as 0.6973 ± 0.0049.

SSPAPPPPSPAS displayed a protein stability index of 0.744 ± 0.043.

Take SSPAYPYWTRIF: the protein stability index was 0.777 ± 0.14.

SSPFPPLTTPSP: the protein stability index worked out at 0.7245 ± 0.0044.

In the case of SSPFPVPLSRPS, the protein stability index was determined as 0.6759 ± 0.0032.

Consider SSPLTPAPLCSS, for which the protein stability index amounted to 0.702 ± 0.1.

SSPLYSLLVLFQ showed a protein stability index of 0.54 ± 0.037.

Take SSPPFPLSLPLY: the protein stability index amounted to 0.682 ± 0.0017.

Consider SSPTSSAPPPFL, for which the protein stability index is 0.697 ± 0.022.

The sequence SSPYPGNVVTST yielded a protein stability index of 0.7133 ± 0.0015.

SSRAGVRRPHSR displayed a protein stability index of 0.685 ± 0.053.

SSRCRGYLFVDG yielded a protein stability index of 0.738 ± 0.043.

SSRELVDGVGIA registered a protein stability index of 0.763 ± 0.068.

For SSRVALRIPGIG, the protein stability index is 0.678 ± 0.024.

In turn, SSRVWPRRRSTA displayed a protein stability index of 0.634 ± 0.052.

SSSLSRLIPRDV displayed a protein stability index of 0.774 ± 0.062.

For the sequence SSSPFVSDFLTL, the protein stability index is 0.673 ± 0.042.

Sequence SSSPLPPLRLCL registered a protein stability index of 0.743 ± 0.041.

SSTLVAFRFPSP returned a protein stability index of 0.7014 ± 0.0043.

SSWWGARVARRG showed a protein stability index of 0.756 ± 0.041.

For SSYGPAKSLGCA, the protein stability index worked out at 0.684 ± 0.023.

In the case of STASSFFFFCCF, the protein stability index was 0.664 ± 0.026.

Turning to STCVRSRTCETP, the protein stability index stood at 0.675 ± 0.021.

In turn, STGAVGVSVCEG yielded a protein stability index of 0.64 ± 0.022.

Regarding STGPFFMIKGSF, the protein stability index came to 0.72 ± 0.027.

On to STGRTSVNLCFS, for which the protein stability index was found to be 0.706 ± 0.041.

STPFALVFLPFP displayed a protein stability index of 0.688 ± 0.034.

In turn, STPHPPPILHVL returned a protein stability index of 0.581 ± 0.013.

In turn, STPPPRSLPSPP yielded a protein stability index of 0.716 ± 0.045.

Sequence STRGGLCFLRWV came in with a protein stability index of 0.5543 ± 0.0019.

Sequence STSLLTRTSSKL registered a protein stability index of 0.792 ± 0.015.

On to STTCPTGLTVGR, for which the protein stability index was determined as 0.69 ± 0.054.

For STVESPNSLPPL, the protein stability index is 0.676 ± 0.037.

Take STVGRFPLSFHH: the protein stability index came out at 0.726 ± 0.062.

Sequence STWSLLKVGPAR showed a protein stability index of 0.6785 ± 0.0015.

Consider SVAPRPPFPFAI, for which the protein stability index was 0.694 ± 0.026.

The sequence SVAQHLRNGNMC yielded a protein stability index of 0.745 ± 0.13.

SVAWGGGVVEWG: the protein stability index is 0.661 ± 0.11.

On to SVDRVIPQERQS, for which the protein stability index came out at 0.697 ± 0.013.

Take SVGCRRGMDSRV: the protein stability index is 0.702 ± 0.04.
